Reference: patent publication US6423539B1, “Adjuvant treatment by in vivo activation of dendritic cells” (The Board of Trustees of the Leland Stanford Junior …, priority 2000, dated 2002)

Experiments:
circulating blood DC = experiment: Clinical study: expansion and phenotype of circulating blood DC after Flt3L administration; format: in vivo, human
Method: Clinical studies were also performed to determine the effect of the activation methods in human patients. It was shown that administration of FL to patients with advanced cancer mobilizes DC precursors into the blood, resulting in an increase of circulating DC of 20 fold on average.
An expansion of circulating blood DC was found following Flt3L administration. PBMC from patients with advanced cancer were assessed either before or following 10 days of Flt3L administration. DC were characterized phenotypically by expression of HLA DR without expression of lineage markers (CD3, 14, 19, 56).
DC were gated on their expression of HLA DR and lack of lineage markers CD3, 14, 19, 56. Flt3L expanded DC express intermediate levels of CD4 and CD54 more homogeneously by comparison with unmobilized DC. Flt3L expanded DC, however, lack surface expression of CD86 and CD40 compared with unmobilized DC. Results are from one patient and are representative of three patients studied.

circulating DC = details: administration to mice in vivo; cited from earlier work

B1: FL: Flt-3 ligand, growth factor that stimulates proliferation of hematopoietic progenitor cells; DC mobilization agent (protein, UniProt P49771 27-235, looked up)
Fms-related tyrosine kinase 3 …: TQDCSFQHSPISSDFAVKIRELSDYLLQDYPVTVASNLQDEELCGGLWRLVLAQRWMERLKTVAGSKMQGLLERVNTEIHFVTKCAFQPPPSCLRFVQTNISRLLQETSEQLVALKPWITRQNFSRCLELQCQPDSSTLPPPWSPRPLEATAPTAPQPPLLLLLLLPVGLLLLAAAWCLHWQRTRRRTPRPGEQVPPVPSPQDLLLVEH
Question: What does the source list for B1?
Answer: phenotype of expanded human DC (circulating blood DC; gated HLA DR positive, lineage negative, one patient, representative of three): immature phenotype; change in circulating blood DC precursors by flow cytometry (circulating blood DC; patients with advanced cancer, before vs. after 10 days of Flt3L): significant increase; increase of circulating DC (circulating blood DC; patients with advanced cancer, on average): 20 fold; increase in number of circulating DC (circulating DC): 10-30 fold
